Target: wild-type FliM (Vibrio alginolyticus flagellar rotor C-ring protein) with an N-terminal His-tag (V. alginolyticus)
Assay: SEC

For “wild-type FliM (Vibrio alginolyticus flagellar rotor C-ring protein) with an N-terminal His-tag (natural protein)”, which stoichiometry N is on record?
The stoichiometry N was 2.

— paper doi:10.1101/2022.04.21.489128
